# From patent US20230302148A1, “PHARMACEUTICAL COMPOSITION COMPRISING LONG-ACTING CONJUGATE OF TRIPLE GLUCAGON/GLP-1/GIP RECEPTOR AGONIST” (HANMI PHARM. CO., LTD., priority 2020, published 2023)
# Bridges are numbered along the chain shown (N, C = ends). Where no end group is shown, it is not given here. [ ]: non-standard residue; d: D form. Aib = CC(C)(N)C(=O)O
# How the values were obtained:
# [1] = FIGURE 5
# Description: Table printed on a drawing sheet, FIGURE 5
# [2] = FIGURE 13
# Description: Table printed on a drawing sheet, FIGURE 13
# W1 means Week 1 and W12 means Week 12.
# First reader's note: The first row gives the substance together with its dose (mg/kg), and each result cell holds the value with its ± deviation in the same cell.
# [3] = target: human GLP-1 receptor (human, UniProt P43220 24-463); test: cell-based or functional assay
# [4] = target: human GCG receptor (human, UniProt P47871 26-477); test: cell-based or functional assay
# Sequence of human GCG receptor (P47871 26-477): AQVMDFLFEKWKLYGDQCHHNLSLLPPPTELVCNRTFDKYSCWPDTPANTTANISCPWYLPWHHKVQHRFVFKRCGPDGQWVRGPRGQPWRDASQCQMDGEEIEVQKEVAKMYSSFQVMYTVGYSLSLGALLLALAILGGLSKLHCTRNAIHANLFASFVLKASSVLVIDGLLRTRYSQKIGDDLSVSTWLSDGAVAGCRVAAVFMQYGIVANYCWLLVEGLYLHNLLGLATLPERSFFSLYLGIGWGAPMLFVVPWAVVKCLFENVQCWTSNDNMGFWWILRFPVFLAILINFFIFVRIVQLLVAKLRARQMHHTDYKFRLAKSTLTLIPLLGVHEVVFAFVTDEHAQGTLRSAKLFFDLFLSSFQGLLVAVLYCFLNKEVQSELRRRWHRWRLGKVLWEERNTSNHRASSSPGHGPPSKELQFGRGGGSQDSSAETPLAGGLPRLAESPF
# [5] = target: T1, human GIP receptor (human, UniProt P48546 22-466); test: cell-based or functional assay
# T1 sequence (looked up): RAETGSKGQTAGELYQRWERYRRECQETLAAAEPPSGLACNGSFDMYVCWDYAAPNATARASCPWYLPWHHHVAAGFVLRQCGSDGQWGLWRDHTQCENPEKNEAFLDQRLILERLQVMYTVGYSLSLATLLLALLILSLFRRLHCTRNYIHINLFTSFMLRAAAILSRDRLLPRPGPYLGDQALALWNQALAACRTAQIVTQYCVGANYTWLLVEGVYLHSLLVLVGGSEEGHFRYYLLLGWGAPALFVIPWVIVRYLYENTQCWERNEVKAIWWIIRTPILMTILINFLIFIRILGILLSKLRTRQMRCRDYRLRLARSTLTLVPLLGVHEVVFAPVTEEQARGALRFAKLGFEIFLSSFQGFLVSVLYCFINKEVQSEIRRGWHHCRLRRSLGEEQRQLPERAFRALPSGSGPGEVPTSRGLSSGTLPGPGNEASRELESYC
Molecule,In vitro activity relative to native peptide (%) vs. GLP-1 [3] [%],In vitro activity relative to native peptide (%) vs. Glucagon [4] [%],In vitro activity relative to native peptide (%) vs. GIP [5] [%],also measured
LONG-ACTING CONJUGATE OF SEQ ID NO: 42 0.01 mg/kg (N=5) (Y[Aib]QGTFTSDYSKYLDEKRAKEFVQWLLDHHPSSGQPPPSC; lactam 16-20; not fully specified (residue 40); also: long-acting carrier conjugate),–,–,–,Dose-normalized Cmax (ng/mL/mg) [1]: 30.73 (13.34) ng/mL/mg; Tmax (hr) [1]: 31.20 (10.733) hr
LONG-ACTING CONJUGATE OF SEQ ID NO: 42 0.01 mg/kg (Y[Aib]QGTFTSDYSKYLDEKRAKEFVQWLLDHHPSSGQPPPSC; lactam 16-20; not fully specified (residue 40); also: long-acting carrier conjugate),–,–,–,Cmax [2]: 0.03122 ± 0.01347 µg/mL; Tmax [2]: 48.00 ± 12.00 h
LONG-ACTING CONJUGATE OF SEQ ID NO: 42 0.02 mg/kg (Y[Aib]QGTFTSDYSKYLDEKRAKEFVQWLLDHHPSSGQPPPSC; lactam 16-20; not fully specified (residue 40); also: long-acting carrier conjugate),–,–,–,AUC0-168h [2]: 11.7703 ± 7.1924 µg·h/mL; Tmax [2]: 48.00 ± 22.22 h
H[Aib]QGTFTSDYSKYLDEKACKDFVQWLLDGGPSSGAPPPS (bridge 16-20) [triple agonist of SEQ ID NO: 32],151,1.7,8.8,–
H[Aib]QGTFTSDYSKYLDEKACKEFVQWLLAQ (bridge 16-20) [triple agonist of SEQ ID NO: 31],135,2.2,2.4,–
H[Aib]QGTFTSDYSIAMDEIHQKDFVNWLLAQKC (bridge 16-20) [triple agonist of SEQ ID NO: 33],24.5,< 0.1,10.4,–
H[Aib]QGTFTSDYSKYLDEKAQKEFVQWLLDTC (bridge 16-20) [triple agonist of SEQ ID NO: 30],142,0.7,0.8,–
H[Aib]QGTFTSDYSKYLDEKAAKEFVQWLLNTC (bridge 16-20) [triple agonist of SEQ ID NO: 29],38.5,6,< 0.1,–
